Where two headings read alike, the source gives them in different places.
Columns and labels:
[1] = molecular target: FP-TM(-)-His, His-Tag-added hMPV (JPS02-76) FP lacking the transmembrane region (amino acid residues 491 to 539 of FP) (human metapneumovirus, strain JPS02-76 (type B1)) (UniProt Q6WB98)
[2] = molecular target: F protein of human metapneumovirus strain JPS02-76 (type B1), on infectious virus (human metapneumovirus, strain JPS02-76 (type B1)) (UniProt Q6WB98); assay: cell-based or functional assay
[3] = molecular target: F protein of human metapneumovirus strain JPS03-178 (type A2), on infectious virus (human metapneumovirus, strain JPS03-178 (type A2)); assay: cell-based or functional assay
[4] = molecular target: F protein of human metapneumovirus strain JPS03-180 (type A1), on infectious virus (human metapneumovirus, strain JPS03-180 (type A1)); assay: cell-based or functional assay
[5] = molecular target: F protein of human metapneumovirus strain JPS05-21 (type B2), on infectious virus (human metapneumovirus, strain JPS05-21 (type B2)); assay: cell-based or functional assay
[6] = molecular target: FP-TM(-)-His, His-Tag-added hMPV (JPS02-76) FP lacking the transmembrane region (amino acid residues 491 to 539 of FP) (human metapneumovirus, strain JPS02-76 (type B1)) (UniProt Q6WB98); assay: SPR, Biacore T-200; antibody captured by anti-human IgG, FP-TM(-)-His as analyte

For mouse anti-hMPV antibody mAb338, the Kd [1] was less than 10 nM, the IC50, cell-to-cell spread inhibitory activity (LLC-MK2 cells stably expressing TMPRSS2) [2] was 0.0215 µg/mL and the IC50, neutralizing activity (hMPV infection of LLC-MK2 cells; GraphPad Prism 6) [2] was 0.281 µg/mL. It also gave an IC60, neutralizing activity (hMPV infection of LLC-MK2 cells; GraphPad Prism 6) [2] of 0.338 µg/mL, an IC90, cell-to-cell spread inhibitory activity (LLC-MK2 cells stably expressing TMPRSS2) [2] of 0.0938 µg/mL and an IC90, neutralizing activity (hMPV infection of LLC-MK2 cells; GraphPad Prism 6) [2] of 0.772 µg/mL. It also gave an IC50, neutralizing activity (hMPV infection of LLC-MK2 cells; GraphPad Prism 6) [3] of 0.18 µg/mL, an IC60, neutralizing activity (hMPV infection of LLC-MK2 cells; GraphPad Prism 6) [3] of 0.239 µg/mL and an IC90, neutralizing activity (hMPV infection of LLC-MK2 cells; GraphPad Prism 6) [3] of 0.856 µg/mL. It also gave an IC50, neutralizing activity (hMPV infection of LLC-MK2 cells; GraphPad Prism 6) [4] of 0.125 µg/mL, an IC60, neutralizing activity (hMPV infection of LLC-MK2 cells; GraphPad Prism 6) [4] of 0.16 µg/mL and an IC90, neutralizing activity (hMPV infection of LLC-MK2 cells; GraphPad Prism 6) [4] of 0.498 µg/mL. For the same substance, the IC50, neutralizing activity (hMPV infection of LLC-MK2 cells; GraphPad Prism 6) [5] was 0.221 µg/mL, the IC60, neutralizing activity (hMPV infection of LLC-MK2 cells; GraphPad Prism 6) [5] was 0.261 µg/mL and the IC90, neutralizing activity (hMPV infection of LLC-MK2 cells; GraphPad Prism 6) [5] was 0.547 µg/mL. The Kd [6] was 0.531 nM, the koff [6] was 0.000228 s⁻¹ and the kon [6] was 434000 M⁻¹ s⁻¹.
